Where a chain is given by its changes, count along the chain named.
Key:
[1] = biological target: T1, interleukin 8 (CXCL8) (100-175: Shenandoah Biotechnology, Inc.) (UniProt P10145 28-99); assay: SPR (Biacore 8K); affinity ratio with the original antibody as 1.0
T1 construct: the antibodies tested are mouse anti-human IL-8 antibodies; also called IL-8
T1 sequence (looked up): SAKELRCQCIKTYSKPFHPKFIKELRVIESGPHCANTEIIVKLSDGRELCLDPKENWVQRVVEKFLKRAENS
Experimental: (§1) (4.1) For anti-IL-6 antibody, anti-IL-8 antibody, and anti-IL-12 antibody Affinity of the original antibodies and variants was measured using Biacore (registered trademark) 8K (Cytiva). As antigens, human IL6 protein, His and GST tags (active) (GTX00094-pro: GeneTex, Inc.), interleukin 8 (CXCL8) (100-175: Shenandoah Biotechnology, Inc.), and human IL 12 protein (Recombinant His, C-terminus) (aa23-328) (LS-G134297-50: LSBio, Inc.) were used. The antigen was immobilized to a sensor chip for Biacore (registered trademark) Series S Sensor Chip CM4 (GE Healthcare). Each antibody solution obtained in the above (3.2) was diluted to prepare an antibody solution for measurement. The concentration of each antibody in the antibody solution for measurement was as follows. In the solutions of the anti-IL-6 antibody (58-1) and its R3, R4 and R5 variants, the concentration was 100 nM, 50 nM, 25 nM, 12.5 nM and 6.25 nM. In the solution of the anti-IL-6 antibody (44-15), the concentration was 100 nM, 50 nM, 25 nM, 12.5 nM and 6.25 nM, and in the solutions of its R3, R4 and R5 variants, the concentration was 50 nM, 25 nM, 12.5 nM, 6.25 nM and 3.13 nM. In the solutions of the anti-IL-8 antibody (166-1) and its R3, R4 and R5 variants, the concentration was 100 nM, 50 nM, 25 nM, 12.5 nM and 6.25 nM. In the anti-IL-8 antibody (146-1) solution, the concentration was 100 nM, 50 nM, 25 nM, 12.5 nM and 6.25 nM, in the solution of its R3 variant, the concentration was 50 nM, 25 nM, 12.5 nM, 6.25 nM and 3.13 nM, and in the solutions of its R4 and R5 variants, the concentration was 25 nM, 12.5 nM, 6.25 nM, 3.13 nM and 1.56 nM. In the anti-IL-12 antibody solution, the concentration was 50 nM, 25 nM, 12.5 nM, 6.25 nM and 3.13 nM, in the solution of its R3 variant, the concentration was 25 nM, 12.5 nM, 6.25 nM, 3.13 nM and 1.56 nM, and in the solution of its R4 variant, the concentration was 12.5 nM, 6.25 nM, 3.13 nM, 1.56 nM and 0.78 nM.
(§2) The antibody solutions for measurement at each concentration were delivered to Biacore (registered trademark) 8K (Cytiva) (association time of 120 seconds and dissociation time of 1200 seconds). Measurement data was analyzed using Biacore (registered trademark) Evaluation software, and the data on the affinity of each antibody for an antigen was obtained.

[2] = biological target: T1, interleukin 8 (CXCL8) (100-175: …); assay: SPR (Biacore 8K), antigen immobilized on CM4 chip, antibody as analyte
Experimental: as §1, §2

[3] = biological target: T2, human IL6 protein, His and GST tags (active) (GTX00094-pro: GeneTex, Inc.) (human, UniProt P05231 30-212, limits assumed); assay: SPR (Biacore 8K); affinity ratio with the original antibody as 1.0
T2 construct: Bought reagent; not shown: His and GST tags
Experimental: as §1, §2

[4] = biological target: T2, human IL6 protein, His and GST tags …; assay: SPR (Biacore 8K), antigen immobilized on CM4 chip, antibody as analyte
Experimental: as §1, §2

[5] = biological target: T3, animal free recombinant human IL-4 (AF-200-04: Peprotech, Inc.) (human, UniProt P05112 25-153); assay: ELISA, IL-4 coated on plate, HRP anti-human IgG detection
T3 construct: Bought reagent
T3 sequence (looked up): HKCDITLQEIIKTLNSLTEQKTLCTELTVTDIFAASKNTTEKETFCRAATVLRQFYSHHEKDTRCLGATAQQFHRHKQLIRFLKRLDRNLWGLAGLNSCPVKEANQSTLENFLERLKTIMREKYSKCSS
Experimental: (§3) Affinity of the original anti-IL-4 antibody and variants was measured by ELISA method. As an antigen, an animal free recombinant human IL-4 (AF-200-04: Peprotech, Inc.) was used. The IL-4 was diluted with 1% BSA/TBS to prepare an antigen solution (5 μg/mL). Each of the original anti-IL-4 antibody, R3 variant and R4 variant was diluted with 1% BSA/TBS to prepare an antibody solution (1000 ng/mL, 250 ng/mL, 62.5 ng/mL, 15.63 ng/mL, 3.91 ng/mL, 0.98 ng/mL, and 0.244 ng/mL). As a detection antibody, an HRP-labeled anti-human IgG antibody (Bethyl Laboratories) was used. The detection antibody was diluted with 1% BSA/TBS to prepare a detection antibody solution (100 ng/mL).
(§4) The antigen solution was dispensed at 50 μL per well into a 96 well plate for ELISA (Thermo Fisher Scientific), and the plate was incubated at 4° C. overnight. The plate was washed 3 times with 200 μL of a washing solution per well (0.05% Tween 20-containing TBS). A blocking solution (1% BSA-containing TBS) was dispensed at 250 μL per well, and the plate was incubated at 4° C. overnight. The blocking solution was removed, the […] solution was dispensed at 50 μL of antibody solution per well into the plate, and the plate was incubated at room temperature for 15 minutes. After washing the plate 3 times with a washing solution, the detection antibody solution was dispensed at 50 μL per well, and the plate was incubated at room temperature for 1 hour. After washing the plate 3 times with a washing solution, a substrate solution (Seracare) was dispensed at 100 μL per well into the plate, and the absorbance at 450 nm was measured with a plate reader SpectraMax 190 Microplate Reader (Molecular Devices, LLC.).

[6] = biological target: T3, animal free recombinant human IL-4 …; assay: ELISA; affinity ratio with the original antibody as 1.0
Experimental: as §3, §4

B1: mouse anti-human IL-8 antibody (clone 166-1), original (unmodified) (Fab, V domains shown, not shown: a dimerising Fc or GST)
VH: EVKLVESGGGLVKPGGSLKLSCAASGFTFNNYAMSWVRQTPEKRLEWVASISSGGNTYYPDSVKGRFTLSRDNARNILYLQMSRLRSEDTAMYYCARDKLRLPNWYFDVWGAGTTVTVSS
VL: DIVLTQSPPSLAVSLGQRATISCKASQSVDYDGDSYMNWYQQKPGQPPKVLIYGASNLESGIPARFSGSGSGTDFTLNIYPVEEEDAATYYCQQSNEDPPTFGGGTKLEIKR
notes: Fab; the light entry holds only the variable domain; a His tag is implied by Ni-NTA purification but not described; also called Anti-IL-8 antibody (clone 166-1)
KD ratio [1]: 1
Kd [2]: 1.64 nM

B2: R3 variant of anti-IL-8 antibody (clone 166-1) (Fab, V domains shown, not shown: a dimerising Fc or GST)
VH: B1 VH
VL: B1 VL with S67R, S69R, S71R
notes: Light chain positions 63, 65, 67 (Chothia) changed to Arg; Fab
KD ratio [1]: 1.4
Kd [2]: 1.17 nM

B3: R5 variant of anti-IL-8 antibody (clone 166-1) (Fab, V domains shown, not shown: a dimerising Fc or GST)
VH: B1 VH
VL: B1 VL with S67R, S69R, S71R, D74R, T76R
notes: Light chain positions 63, 65, 67, 70, 72 (Chothia) changed to Arg; Fab
KD ratio [1]: 4.2
Kd [2]: 0.389 nM

B4: R4 variant of anti-IL-8 antibody (clone 166-1) (Fab, V domains shown, not shown: a dimerising Fc or GST)
VH: B1 VH
VL: B1 VL with S67R, S69R, S71R, D74R
notes: Light chain positions 63, 65, 67, 70 (Chothia) changed to Arg; Fab
KD ratio [1]: 2.8
Kd [2]: 0.595 nM

B5: mouse anti-human IL-6 antibody (clone 44-15), original (unmodified) (Fab, V domains shown, not shown: a dimerising Fc or GST)
VH: DVQLQESGPGLVKPSQTVSLTCTVTGISITTGNYRWSWIRQFPGNKLEWIGYIYYSGAITYNPSLTSRTTITRDTSMNQFFLEMISLTAEDTATYYCARDRYDYAVDFWGQGTSVTVSS
VL: DIQMTQSPASLSASVGETVTITCRSSENIYSFLTWFQQRQGKSPHLLVYYANTLAEGVPSRFSGSGSGTQFSLQINSLQPEDFGTYYCQHHYGTPWTFGGGTRLEIKR
notes: Fab; the light entry holds only the variable domain; a His tag is implied by Ni-NTA purification but not described; also called Anti-IL-6 antibody (clone 44-15)
KD ratio [3]: 1
Kd [4]: 20.4 nM

B6: mouse anti-human IL-8 antibody (clone 146-1), original (unmodified) (Fab, V domains shown, not shown: a dimerising Fc or GST)
VH: EVQLVESGGGLVKPGGSLKLSCAASGFTFSSYAMSWVRQTPEKRLEWVATISNGGSYTYYPDSLKGRFTISRDNAKNTLYLQMSSLRSEDTAIYYCARGITGGVYFDYWGQGTTLTVSS
VL: B5 VL with S25A, F32Y, T34A, F36Y, R39K, Y50D, N52E, Q74K, T85S, R103K
notes: Fab; the light entry holds only the variable domain; a His tag is implied by Ni-NTA purification but not described; also called Anti-IL-8 antibody (clone 146-1)
KD ratio [1]: 1
Kd [2]: 15.3 nM

B7: R4 variant of anti-IL-8 antibody (clone 146-1) (Fab, V domains shown, not shown: a dimerising Fc or GST)
VH: B6 VH
VL: DIQMTQSPASLSASVGETVTITCRASENIYSYLAWYQQKQGKSPHLLVYDAETLAEGVPSRFRGRGRGTRFSLKINSLQPEDFGSYYCQHHYGTPWTFGGGTKLEIKR
notes: as for B4
KD ratio [1]: 4.9
Kd [2]: 3.14 nM

B8: R3 variant of anti-IL-6 antibody (clone 44-15) (Fab, V domains shown, not shown: a dimerising Fc or GST)
VH: B5 VH
VL: B5 VL with S63R, S65R, S67R
notes: as for B2
KD ratio [3]: 2.9
Kd [4]: 7.16 nM

B9: R5 variant of anti-IL-6 antibody (clone 44-15) (Fab, V domains shown, not shown: a dimerising Fc or GST)
VH: B5 VH
VL: B5 VL with S63R, S65R, S67R, Q70R, S72R
notes: as for B3
KD ratio [3]: 4.6
Kd [4]: 4.4 nM

B10: R3 variant of anti-IL-8 antibody (clone 146-1) (Fab, V domains shown, not shown: a dimerising Fc or GST)
VH: B6 VH
VL: B7 VL with R70Q
notes: as for B2
KD ratio [1]: 2.6
Kd [2]: 5.8 nM

B11: R4 variant of anti-IL-6 antibody (clone 44-15) (Fab, V domains shown, not shown: a dimerising Fc or GST)
VH: B5 VH
VL: B5 VL with S63R, S65R, S67R, Q70R
notes: as for B4
KD ratio [3]: 2.4
Kd [4]: 8.38 nM

B12: R5 variant of anti-IL-8 antibody (clone 146-1) (Fab, V domains shown, not shown: a dimerising Fc or GST)
VH: B6 VH
VL: B7 VL with S72R
notes: as for B3
KD ratio [1]: 6.4
Kd [2]: 2.4 nM

B13: mouse anti-human IL-6 antibody (clone 58-1), original (unmodified) (Fab, V domains shown, not shown: a dimerising Fc or GST)
VH: EVQLQQSGPELVKPGASVKMSCKASGYTFTSYVMHWVKQKPGQGLEWIGYINPYNDGTKYNEKFKGKATLTSDKSSSTAYMELSSLTSEDSAVYYCAREGYGNLERDCWGQGTSVTVSS
VL: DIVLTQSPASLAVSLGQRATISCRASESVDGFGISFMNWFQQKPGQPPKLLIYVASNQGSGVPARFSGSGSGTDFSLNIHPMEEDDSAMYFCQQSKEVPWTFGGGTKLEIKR
notes: The heavy entry is VH-CH1 with part of the hinge; the light entry holds only the variable domain; Purified on Ni-NTA, so a His tag is implied but not described; also called Anti-IL-6 antibody (clone 58-1)
KD ratio [3]: 1
Kd [4]: 0.198 nM

B14: R5 variant of anti-IL-6 antibody (clone 58-1) (Fab, V domains shown, not shown: a dimerising Fc or GST)
VH: B13 VH
VL: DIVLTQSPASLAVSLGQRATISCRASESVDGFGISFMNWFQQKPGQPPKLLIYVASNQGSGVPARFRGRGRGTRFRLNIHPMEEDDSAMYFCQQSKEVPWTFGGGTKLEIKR
notes: as for B3
KD ratio [3]: 7.1
Kd [4]: 0.0279 nM

B15: R3 variant of anti-IL-6 antibody (clone 58-1) (Fab, V domains shown, not shown: a dimerising Fc or GST)
VH: B13 VH
VL: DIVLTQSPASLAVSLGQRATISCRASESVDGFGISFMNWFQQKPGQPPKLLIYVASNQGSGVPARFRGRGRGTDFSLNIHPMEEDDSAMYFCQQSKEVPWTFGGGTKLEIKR
notes: Light chain positions 63, 65, 67 (Chothia) changed to Arg; Fab; a His tag is implied by Ni-NTA purification but not described
KD ratio [3]: 2.4
Kd [4]: 0.0812 nM

B16: R4 variant of anti-IL-6 antibody (clone 58-1) (Fab, V domains shown, not shown: a dimerising Fc or GST)
VH: B13 VH
VL: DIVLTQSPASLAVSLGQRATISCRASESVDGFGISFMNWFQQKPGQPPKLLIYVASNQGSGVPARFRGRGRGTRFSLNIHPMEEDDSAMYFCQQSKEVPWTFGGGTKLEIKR
notes: as for B4
KD ratio [3]: 4.2
Kd [4]: 0.0472 nM

B17: human anti-IL-4 antibody (PDB: 5FHX), original (unmodified) (antibody, human IgG1, kappa, V domains shown)
VH: AVQLQQSGPELVKPGASVKISCKASGYSFTSYWIHWIKQRPGQGLEWIGMIDPSDGETRLNQRFQGRATLTVDESTSTAYMQLRSPTSEDSAVYYCTRLKEYGNYDSFYFDVWGAGTLVTVSS
VL: DIQMTQSPASLSVSVGDTITLTCHASQNIDVWLSWFQQKPGNIPKLLIYKASNLHTGVPSRFSGSGSGTGFTLTISSLQPEDIATYYCQQAHSYPFTFGGGTKLEIKR
notes: IgG with full heavy and light chains; also called original anti-IL-4 antibody
EC50 [5]: 0.304 µg/mL
EC50 ratio [6]: 1

B18: R4 variant of anti-IL-4 antibody (antibody, human IgG1, kappa, V domains shown)
VH: B17 VH
VL: B17 VL with S63R, S65R, S67R, G70R
notes: IgG; light chain positions 63, 65, 67, 70 (Chothia) changed to Arg
EC50 [5]: 0.176 µg/mL
EC50 ratio [6]: 1.7

B19: R3 variant of anti-IL-4 antibody (antibody, human IgG1, kappa, V domains shown)
VH: B17 VH
VL: B17 VL with S63R, S65R, S67R
notes: IgG; light chain positions 63, 65, 67 (Chothia) changed to Arg
EC50 [5]: 0.18 µg/mL
EC50 ratio [6]: 1.7

Reference: patent US20230091175A1 (SYSMEX, published 2023)
